From US5885772

Target: F-actin
Assay: cosedimentation with F-actin through a sucrose cushion, SDS-PAGE

- Kd: 53 nM
- stoichiometry (actin monomers per MacMARCKS): 12
Substance: MacMARCKS
